Results as given in patent publication US20220396794A1, “APTAMERS AGAINST TRANSFERRIN RECEPTOR (TfR)” (APTERNA LIMITED, priority 2019, published 2022).

Legend:
[1] = target: T1, TfR2 (Homo sapiens, UniProt Q9UP52); assay: Cross-reactivity by live cell confocal imaging, TB10 cells (express TfR2, not TfR1); assay type: cell-based; conditions: Cy3-labelled aptamer, TB10 cells (TfR2 only)
T1 construct: In contrast, TB10 expresses TfR2, not TfR1; endogenous in cells; host or cells: TB10 human glioma cells
T1 sequence (Q9UP52 1-801): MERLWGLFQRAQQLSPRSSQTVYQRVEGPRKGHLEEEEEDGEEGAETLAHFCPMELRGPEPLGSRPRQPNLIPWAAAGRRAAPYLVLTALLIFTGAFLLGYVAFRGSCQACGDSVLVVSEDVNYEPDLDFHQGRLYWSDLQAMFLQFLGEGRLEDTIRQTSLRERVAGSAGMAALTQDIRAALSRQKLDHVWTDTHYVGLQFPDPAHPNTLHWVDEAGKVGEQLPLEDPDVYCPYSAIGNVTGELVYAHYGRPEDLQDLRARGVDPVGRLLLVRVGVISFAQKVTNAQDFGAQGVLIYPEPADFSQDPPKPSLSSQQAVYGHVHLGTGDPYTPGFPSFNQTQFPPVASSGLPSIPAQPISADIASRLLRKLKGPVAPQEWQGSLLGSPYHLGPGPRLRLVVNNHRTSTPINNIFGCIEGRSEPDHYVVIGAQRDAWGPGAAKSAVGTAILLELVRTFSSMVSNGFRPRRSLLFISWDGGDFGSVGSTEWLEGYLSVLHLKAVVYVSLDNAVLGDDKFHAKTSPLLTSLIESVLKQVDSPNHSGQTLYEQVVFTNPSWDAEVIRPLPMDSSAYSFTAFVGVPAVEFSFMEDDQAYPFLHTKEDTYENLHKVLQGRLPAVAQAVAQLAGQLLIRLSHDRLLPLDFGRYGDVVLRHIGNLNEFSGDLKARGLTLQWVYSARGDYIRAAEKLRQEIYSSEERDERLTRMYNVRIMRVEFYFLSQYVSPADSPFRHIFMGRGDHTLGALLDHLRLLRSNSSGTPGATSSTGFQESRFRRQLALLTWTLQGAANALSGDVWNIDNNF
Experimental: (§1) Cell line. HepG2 (Hepatocarcinoma, HB-8065) and PANC-1 (Pancreatic epithelioid carcinoma, CRL-1469), U-87 MG (Glioblastoma, HTB-14) were purchased from the American Type Culture Collection (ATCC, Manassas, Va.). The cells were cultured according to the suppliers' instructions. TB10 human glioma cell line was obtained from Vittorio de Franciscis lab in Italy. The cells were cultured according to the suppliers' instructions.
(§2) To determine the potential cross-reactivity of the parent TR14, S2 (43-nt) and ST1-3 (22-nt) truncates, we tested chemically synthesized parent TR14, TR14-[…] or TR14-ST1-3 aptamer labelled with Cy3 on live cells imaging by confocal microscopy. To test this, we choose two glioblastoma cell lines (U87MG and TB10) that are selectively expressed of TfR1 or TfR2. The U87MG cells only express TfR1, not TfR2. In contrast, TB10 expresses TfR2, not TfR1.

[2] = target: T2, TfR1 (Homo sapiens, UniProt P02786); assay: Cross-reactivity by live cell confocal imaging, U87MG cells (express TfR1, not TfR2); assay type: cell-based; conditions: Cy3-labelled aptamer, U87MG cells (TfR1 only)
T2 construct: The U87MG cells only express TfR1, not TfR2; endogenous in cells; host or cells: U87MG (U-87 MG, ATCC HTB-14)
T2 sequence (P02786 whole entry): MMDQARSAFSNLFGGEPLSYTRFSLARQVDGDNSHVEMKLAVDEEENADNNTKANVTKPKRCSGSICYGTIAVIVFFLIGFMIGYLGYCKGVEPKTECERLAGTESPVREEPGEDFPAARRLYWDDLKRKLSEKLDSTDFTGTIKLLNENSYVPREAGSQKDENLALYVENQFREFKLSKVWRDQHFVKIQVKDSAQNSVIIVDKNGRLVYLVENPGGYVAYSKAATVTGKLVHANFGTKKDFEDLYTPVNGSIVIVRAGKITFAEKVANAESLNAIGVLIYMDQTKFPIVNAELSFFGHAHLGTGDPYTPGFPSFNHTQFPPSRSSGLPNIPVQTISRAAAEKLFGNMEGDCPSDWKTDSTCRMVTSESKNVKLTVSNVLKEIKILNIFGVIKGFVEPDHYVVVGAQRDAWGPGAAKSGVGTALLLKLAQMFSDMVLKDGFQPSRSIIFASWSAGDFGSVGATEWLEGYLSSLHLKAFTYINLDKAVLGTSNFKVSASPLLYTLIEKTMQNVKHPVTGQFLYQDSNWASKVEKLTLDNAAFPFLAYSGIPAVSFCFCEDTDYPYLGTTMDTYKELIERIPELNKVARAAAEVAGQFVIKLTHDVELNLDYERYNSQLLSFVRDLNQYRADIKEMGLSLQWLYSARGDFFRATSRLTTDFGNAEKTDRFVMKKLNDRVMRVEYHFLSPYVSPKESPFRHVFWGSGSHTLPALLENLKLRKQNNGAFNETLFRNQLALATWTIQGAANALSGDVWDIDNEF
Experimental: as §1, §2

[3] = test system: PANC-1 cells; assay: Competition assays with human transferrin or human transferrin receptor antibodies; assay type: cell-based; conditions: aptamer 200 nM
Experimental: Competition assays. For competition assays with human transferrin or human transferrin receptor antibodies, 5×10^3 PANC-1 cells/well were seeded in 96-well plates and grown in one day. Cells were pre-incubated with TR14 at 200 nM for 20 min on ice with PBS. After washing with PBS, human transferrin conjugated with Alexa-488 at 25 μg/mL or human transferrin receptor antibody (2 μL/1×10^4 cells) conjugated with FITC were added to cells and the cells were incubated at 37° C. for 40 min. Afterward, the cells were washed with HBSS twice to remove cell surface binders. The intensity of fluorescence was quantified using plate reader (Molecular device, SpectraMax iD5). The intensity was normalized with aptamer non-treated control cells (mock).

[4] = test system: PANC-1 cells; assay: Live-cell confocal imaging for aptamer internalization, PANC-1; assay type: cell-based, human; conditions: Cy3-labeled aptamer 200 nM, 2-h incubation, PANC-1, confocal microscopy
Experimental: (§3) Live-cell confocal imaging for aptamer internalization. 1×10^5 HepG2 or PANC-1 cells were seeded in 35-mm glass-bottom dishes (MatTek, Ashland, Mass.) and grown in appropriate media for 24 h. Aptamer RNAs were labeled with Cy3 fluorescent dye using the Cy3 Silencer siRNA labeling kit (Thermo Fisher Scientific, Waltham, Mass.). Cy3-labeled aptamers in binding buffer (30 mM Tris-HCl, pH 7.5; 150 mM NaCl; 5 mM MgCl2; 100 μg/mL yeast tRNA) were added to the cells at 200 nM and incubated at 37° C. for 2 h. Before imaging, cells were washed with DPBS twice. Live-cell confocal imaging was performed with a Zeiss LSM 510 Meta inverted two-photon confocal microscope system using a C-Apo 40×/1.2NA water immersion objective, and AIM 4.2 software (Carl Zeiss, Jena, Germany).

[5] = test system: HepG2 cells; assay: Live-cell confocal imaging for aptamer internalization, HepG2; assay type: cell-based, human; conditions: Cy3-labeled aptamer 200 nM, 2-h incubation, HepG2, confocal microscopy
Experimental: as §3

[6] = test system: PANC-1 cells; assay: Cellular uptake inhibition assay with endocytosis inhibitors; assay type: cell-based, human; conditions: Cy3-aptamer 200 nM, 1 hour
Experimental: Cellular uptake inhibition assay. 5×10^3 PANC-1 cells/well were seeded in 96-well plates one day before assay. PANC-1 cells were left either pretreated or untreated with chlorpromazine (CPZ, clathrin endocytosis inhibitor, 10 μg/mL), chloroquine (CQ, clathrin endocytosis inhibitor, 20 μg/mL), dynasore (dynamine inhibitor, 80 μM), genistein (GEZ, caveolae/lipid mediated endocytosis inhibitor, 50 μg/mL), or, cytochalasin D (Cyto D, 5 μM) at 37° C. for 30 min. Subsequently, cells were washed with DPBS and incubated with Cy3-labeled aptamers at 200 nM at 37° C. f for 1 hour. Following incubation, cells were washed with HBSS to remove surface-bound aptamers. Cellular uptake was quantified by fluorescence using a plate reader (Molecular device, SpectraMax iD3). The inhibition of uptake was normalized with inhibitor non-treated groups (mock)

[7] = test system: PANC-1 cells; assay: Co-localization assay with early endosome, late endosome and lysosome markers; assay type: cell-based, human; conditions: Cy3 labelled aptamer 200 nM, 2 h, live cells expressing GFP-Rab5a, Rab7a or Lamp1
Experimental: Co-localization assay. 1×10^5 PANC-1 cells were seeded in 35 mm glass-bottom dishes (MatTek, Ashland, Mass.) and grown in appropriate media for 24 h. CellLight™ Early endosome-GFP BacMam 2.0 (Thermo Fisher, C10586, CellLight™ Late endosome-GFP BacMam 2.0 (Thermo Fisher, C10588), or CellLight™ Lysosome-GFP BacMam 2.0 lysosome-GFP (Thermo Fisher, C10596) of 20 μL were added and incubated at 37° C. for 16 h. After confirmation of GFP expression, chemically synthesized TR14 labelled with Cy3 at 200 nM was incubated at 37° C. for 2 h. The co-localization was assessed on live cells by confocal microscopy.

[8] = test system: PANC-1 cells; assay: Flow cytometry-based binding assay; assay type: cell-based, human; conditions: Cy3-labelled aptamer 500 nM, 20 minutes in ice, PANC-1, compared with initial RNA library pool
Experimental: Flow cytometry-based binding assays. Aptamer binding was assessed by flow cytometry. For the assay, the PANC-1 cells were detached using Accutase, washed with PBS and suspended in binding buffer. Next, chemically synthesized aptamers labeled with Cy3 at 500 nM were added to target cells for 20 minutes in ice. Cells were washed with binding buffer and immediately analyzed by NovoCyte (ACEA Biosciences). For the exclusion of dead cells, 4′6′-diamidino-2-phenylindole (DAPI) (1 μg/ml) was used. The data were analyzed with NovoExpress software.

[9] = target: T3, hTfR1 (extracellular domain of hTfR, His6-tagged) (Homo sapiens, UniProt P02786); assay: Surface plasmon resonance-based biosensor assay (Biacore T100), aptamer-hTfR binding affinity and kinetics
T3 construct: (NP_003225.2) (Cys 89-Phe 760); His6 (N); purchased Sino Biological Inc 11020-H07H; host or cells: HEK293
T3 sequence (P02786 89-760): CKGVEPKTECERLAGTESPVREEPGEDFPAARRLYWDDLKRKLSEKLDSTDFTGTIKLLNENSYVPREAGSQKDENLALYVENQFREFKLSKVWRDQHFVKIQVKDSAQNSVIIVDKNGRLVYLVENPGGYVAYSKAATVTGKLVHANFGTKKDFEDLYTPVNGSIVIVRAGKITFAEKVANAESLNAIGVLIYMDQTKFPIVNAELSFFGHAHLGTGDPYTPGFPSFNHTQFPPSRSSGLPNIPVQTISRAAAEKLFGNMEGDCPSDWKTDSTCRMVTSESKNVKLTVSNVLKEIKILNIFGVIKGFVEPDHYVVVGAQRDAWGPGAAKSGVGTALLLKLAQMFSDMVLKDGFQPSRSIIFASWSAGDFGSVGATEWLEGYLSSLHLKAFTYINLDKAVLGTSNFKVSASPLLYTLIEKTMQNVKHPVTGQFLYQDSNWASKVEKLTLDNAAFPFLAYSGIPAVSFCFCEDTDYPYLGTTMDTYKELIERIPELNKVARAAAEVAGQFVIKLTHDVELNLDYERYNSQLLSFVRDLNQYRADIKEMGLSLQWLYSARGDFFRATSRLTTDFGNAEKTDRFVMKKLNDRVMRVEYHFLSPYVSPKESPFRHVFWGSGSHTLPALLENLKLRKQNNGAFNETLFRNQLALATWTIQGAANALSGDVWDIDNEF
Description: Recombinant target protein. hTfR was purchased from Sino Biological Inc (11020-H07H, Beijing, P.R. China). The extracellular domain of hTfR (NP_003225.2) (Cys 89-Phe 760) was expressed with a His6-tag at the N-terminus in human cells (HEK293).
Surface plasmon resonance-based biosensor assay. The Biacore T100 (GE Healthcare, Uppsala, Sweden) was used to monitor label-free interactions of truncated TR14-hTfR1 in real time. The biotinylated aptamer was coupled to a streptavidin-coated Biacore chip (SensorChip SA, BR-1003-98, General Electric Company) by an injection in binding buffer at a concentration of 25 μg/mL (30 mM Tris-HCl, pH 7.5; 150 mM NaCl; 5 mM MgCl2) at 10 uL/min. The RNA was refolded by heating to 65° C., followed by cooling to 37° C., before immobilization. To measure binding kinetics, five concentrations of purified hTfR1 protein were injected at a flow rate of 10 uL/min. After binding, the surface was regenerated by injecting 50 mM NaOH at a flow rate of 15 μL/min for 20 s. Data from the control surface were subtracted. BIAevaluation software (GE Healthcare) was used for analysis. The binding data was fit to a 1:1 binding with a mass transfer model to calculate kinetics parameters as previously described (Hernandez et al, 2009; Soontornworajit et al, 2011)

[10] = Biacore T100, biotinylated aptamer on streptavidin chip, hTfR1 protein injected, 1:1 binding with mass transfer
[11] = label-free biosensor assay in real-time

B1: TR14: 87-nucleotide anti-hTfR 2′F-RNA aptamer identified after nine rounds of protein SELEX; SEQ ID NO:1 (nucleic acid)
chain: GGGAGACAAGAAUAAACGCUCAAUGCGUUCACGUUUAUUCACAUUUUUGAAUUGAGCAUGAGCUUCGACAGGAGGCUCACAACAGGC
modifications: 2'-fluoro RNA aptamer from SELEX, modified positions not given here
Question: What does the source list for B1?
Answer: binding to TfR2 [1]: bound to both TfR1 and TfR2; binding to TfR1 [2]: bound to both TfR1 and TfR2; competition with transferrin receptor antibodies ([3]; FITC-conjugated human transferrin receptor antibody): did not compete; internalized transferrin after pre-incubation with aptamer ([3]; human transferrin-Alexa-488 25 μg/mL): significantly inhibited; cell internalization [4]: successfully internalized; cell internalization [5]: successfully internalized; uptake of aptamer after pre-treatment with clathrin mediated endocytosis (CME) inhibitors ([6]; chlorpromazine 10 μg/mL, chloroquine 20 μg/mL or dynasore 80 μM): inhibited significantly; uptake of aptamer after pre-treatment with clathrin independent endocytosis (CIE) inhibitors ([6]; genistein 50 μg/mL or cytochalasin D 5 μM): not interfered; subcellular co-localization with early endosome, late endosome and lysosome [7]: multiple co-localizations; cell surface binding by flow cytometry [8]: enriched cell surface binding; ka (1/Ms), measured association rate [9, 10]: 6780 M⁻¹ s⁻¹; kd (1/s), measured disassociation rate [9, 10]: 1.68e-06 s⁻¹; association (ka) rate constant [9, 11]: 6780 M⁻¹ s⁻¹; dissociation (kd) rate constant [9, 11]: 1.68e-06 s⁻¹; Kd ([9]; label-free biosensor assay in real-time, read-out: equilibrium dissociation constant (K^D) for hTfR): 0.0317 nM
